Legend:
[1] = target: nAb3 (Absolute Antibody Ab01680-10.0), human anti-spike neutralizing antibody; assay: Octet BLI, target on AHC sensor, spike as analyte
[2] = target: nAb1 (Active Motif 91349), human anti-spike neutralizing antibody; assay: Octet BLI, target on AHC sensor, spike as analyte
[3] = target: nAb2 (Active Motif 91361), human anti-spike neutralizing antibody; assay: Octet BLI, target on AHC sensor, spike as analyte
[4] = target: nAb3 (Absolute Antibody Ab01680-10.0), human anti-spike neutralizing antibody; assay: repeat Octet BLI, target on AHC sensor, spike as analyte
[5] = target: nAb1 (Active Motif 91349), human anti-spike neutralizing antibody; assay: as above
[6] = target: nAb2 (Active Motif 91361), human anti-spike neutralizing antibody; assay: as above

“SPN-C52H8 (SARS-CoV 2 Spike protein with His Tag, Acro Biosystems) (from UniProt P0DTC2 14-1213)” gave a kon [1] of 34300 M⁻¹ s⁻¹, a kon [2] of 75400 M⁻¹ s⁻¹ and a kon [3] of 115000 M⁻¹ s⁻¹. It also gave a kon [4] of 11300 M⁻¹ s⁻¹, a kon [5] of 18400 M⁻¹ s⁻¹ and a kon [6] of 54300 M⁻¹ s⁻¹.

— patent publication US20230302116A1
